The DeepSol protein solubility set

Assay: soluble on expression in E. coli; label from the status in PepcDB or PDB records
For “MGSDKIHHHHHHENLYFQGMNIETLMIKNPPILSKEDRLGSAFKKINEGGIGRIIVANEKIEGLLTTRDLLSTVESYCKDSCSQGDLYHISTTPIIDYMTPNPVTVYNTSDEFTAINIMVTRNFGSLPVVDINDKPVGIVTEREFLLLYKDLDEIFPVKVFMSTKVQTIYKEVRLDQAVKLMLRRGFRRLPVIDDDNKVVGIVTVVNAIKQLAKAVDKLDPDYFYGKVVKDVMVTNLVTIDELASVNRAAAEMIVKRIGSLLILNKDNTIRGIITERDLLIALHHILVMEKFKEKL”, the “soluble on expression in E. coli” value was “soluble”.
For “MGSDKIHHHHHHMKLSMPRFDQAPVLVVGDVMLDRYWHGGTSRISPEAPVPVVKVDQIEDRPGGAANVALNIAALGAPASLVGVTGDDEAAESLTNSLKAAGVVARFQRIADQPTIVKLRVMSRHQQLLRIDFEEPFNTDPLALSAEVYSLLDGIKVLVLSDYGKGALKNHQALIQAARKRGIPVLADPKGKDFAIYRGASLITPNLSEFEAIVGHCEDEAQLVTKGAQLMQELDLGALLVTRGEHGMTLLRPDQQALHLPARAREVFDVTGAGDTVISTLAAAIAAGEELPHAVALANLAAGIVVGKLGTAAISAPELRRAIQREEGSERGVLGLEQLLLAVDDARAHKEKIVFTNGCFDILHAGHVTYLEQARAQGDRLIVAVNDDASVSRLKGPGRPINSVDRRMAVLAGLGAVDWVISFPEGTPENLLTHVKPDVLVKGGDYGIDQVVGADIVQAYGGEVRVLGLVENSSTTAIVEKIRGQG”, the “soluble on expression in E. coli” value was “not soluble”.
For “MGSDKIHHHHHHMSQTQQSASITSETQSFDVILVGGGMVGAATAIGLAQQGLHIAVIESFAPEAYSPEQALDVRVSAISVASEHLLEQLGALDSLLKMRNVPYLGLETWELDGCITQFHSSQIGASHLGHIVENRLVQLALWEQMQQWENIRLFCPERVAHFARGVDTVSVHLQSGCLLEAKLLVGADGANSHVRQWAGIGISGWDYAQSAMLINIQTTQGQQDVTWQQFTPSGPRSLLPLPGNHASLVWYDDANRIKQLMQLNNKQLAEQIRQHFPARLDSDFIVEAKGSFALTRRHAQVYVKPNVVILGDAAHTINPLAGQGVNLGFKDVEALLSVIKAALTEDKPWWSTEVLGKYQAKRYLDNQLMMTTMDVFYAGFSNDILPLKLLRNGALKLANINSPLKQTVLKYAMGLN”, the “soluble on expression in E. coli” value was “not soluble”.
With “MGSDKIHHHHHHMWHLFLECAFKIFLFEHSFKYFLNNFSKLGRLIIPSLKKTQIMRNAEFDRKAVLCAAMSVFTAKGYAKTSMQDLTKATGLHPGSIYCAFENKKGLLIAAIGQYQDERHQQFVRLFDNDAPCLSNLSNYLTEIVDECLSQDMSKACLLTKTLNEVGSQDEEIKTLITANLTAWQAALTAVFSLAQKNNEIDSQANSQELAQYLMMGIYGLRTFAHTHKDGQQLAQLAKKLLADVSR” the “soluble on expression in E. coli” value was “not soluble”.
For “SRLLKTDLLEDVFNVENESFMQETELKENEYSVNLRTRFWFRGRAYDGWINLVNPFRATMVLGTPGSGKSYAIINQYIKQTIEKGYSLFLYDFKYPDLSEIAYNHLLAHLDGYKVKPKFYVINFDNPRESHRCNPIHPDFMTDISDAYESAYTIMLNLNRTWISKQGDFFVESPIILLASIIWYLKIYKNGKYCTFPHAIEFLNRKYADIFPILTSYPELENYLSPFMDAWESSAVEQLQGQIASAKIPLSRMISPALYWVMTADDFTLDINNPEEPKVLVVGNNPDRQGIYGAALGLYNSRIVKLINKKKRLKSAVIIDELPTIYMRGLDNLIATARSNKVAVMLGFQDFSQLKRDYGDKESAVICNTVGNVFAGQVVAETAKTLSERFGKVLQKRQNMTINRNETSVSINTQMDSLIPASKISNLTQGMFVGAVADNFDERIEQKIFHAEIVVDNEQVRRETARYVKIPQIIDFTDKDGNDTMQQQIDANYYRIKSEVRQIVADEIGRIKADPELSHLIKDK”, the “soluble on expression in E. coli” value was “not soluble”.
With “MAQNPNSFTDSVFGMIRNLLVSIRAGLFELTIKQPVTQNSLQRYQEEHREEKQQYLRQAILDLAEDSEEEDDGQPLDKETLSKMIAELTIERNNLRRSFNIVNEQRTGSKDRQHMEEEIRIQNWTKEDREELESGLAVMRQTIQESWKDAADCEQEKRSKNNQ” the “soluble on expression in E. coli” value was “not soluble”.
For “MSLRSEQEMMDIFLDFALNDERIRLVTLEGSRTNRNIPPDNFQDYDISYFVTDVESFKENDQWLEIFGKRIMMQKPEDMELFPPELGNWFSYIILFEDGNKLDLTLIPIREAEDYFANNDGLVKVLLDKDSFINYKVTPNDRQYWIKRPTAREFDDCCNEFWMVSTYVVKGLARNEILFAIDHLNEIVRPNLLRMMAWHIASQKGYSFSMGKNYKFMKRYLSNKEWEELMSTYSVNGYQEMWKSLFTCYALFRKYSKAVSEGLAYKYPDYDEGITKYTEGIYCSVKEGHHHHHH”, the “soluble on expression in E. coli” value was “soluble”.
With “MDGHAPTFTSIQDIQGEGASSPFIDGYPYITTEEHFVTGVVSAVTSGLTKGFYLQAIENDNNDKTSEGLFIHTNAADTELKPGDVVCVKGKVQEYYNNTQLSSDATSYVKTGTSDIPLVTPLVIKEGETLRDALERHEGMQVTLNSASDLFVTRNFSYDYDSKRNNMMLSHQAPLFKPTQLHAADSAEAVALAKQNAENRVFLESDAKAPNGKIPYYPEFGQDLDQDGSSEQHIRLGSRVEGLQGVVNYSYNEYRLIATNDVNNTNFVAAGDGFDVERKAAPAIAESDLRVASFNVLNYFTSVALEHHHHHH” the “soluble on expression in E. coli” value was “not soluble”.
With “MGIRELNLTKEQHEWLNGWLELWAHGLSGRLEKRMSSVIAKFMESIEPGRVMTRPMCNDDDGMLISQVVDSVMYIDKKAFGILLSYYAHGSSKHAIASYYHRVARPRKMLCRGGGRIQKPSLATCRREVDEILNASLFMIYPVLDSAFKNRKRVEKIKHVALEHHHHHH” the “soluble on expression in E. coli” value was “soluble”.
For “MSLGNNLKKKNGADSLYYTTRTFATTKEVIQANKFVNSEKLNEIAKKTDCTYLKSPAGIFTQATLPINKIYEELSHDTINAVKLTFNSYNQPDNGKFSMKAPTYVLLLREKERQSFFEENKLTDNITSYLAVHNAIISNKPTTNQYVFTNLTRLINACVNEKQEAKKKAGDSWNEAAWEAANPDWNKVVLIPVLVQYDSSSNKNMISIQHDLQPGYVKLEGGPDGTKLKLEVTYTNFNGKEGHHHHHH”, the “soluble on expression in E. coli” value was “soluble”.
In the case of “LYQHMQQQIQVQAAQNIALQDQLQQALIVPNQRIAQLEQQQLSDAKTFQELSKLATDQSQLQDRLNKLAQRSPTHWMASEAEYLVNMAGRKLWLEKDPRTATDLLKSADETIAAMNNPALLPIRKALAKDIAATTNLKSADIEGSVLALDALIGQLDKLPLNRADGEASTAEDTTISGDLNDWQSNLSKTWKALTQDFITIRHRTADVPALLAPDQQWYLVENIRHKLLQSQLALYRYDRAAYHQSLMMARQWIQSYFDVQAHQTSEAIAAIDKLATLELDPITLKAFEAKPLLLQLTSYGELTSLEEPQL”, the “soluble on expression in E. coli” value is reported as “not soluble”.
In the case of “MSLINLDVWIDLTNAPHVHYFCQLIKKFEKEGIEYLLTFRDSGNLAKLVEIYNFVGKCIGKHGNTLKDKLIFYAERVIGLTELISNVKPKVAIAKHSVELPRVAFGLNIPVIFVVDNEHAEAQNKLTLPLADEIIKPIATDENKLKEFGGRNFISFEGTCEVANVNSRLKGYYPIDNEILKKLGICDDNPTIVMRPCPNSSYCNGHKDILPKIIEKLQKRIDCNIVVFPRDEHQKEIYREVNAIVPKETIDALSLLYNSDFMIGAGGTMNRESAILGIPTVSCYPQELLGVDKYLIEKDRMIHTNDIKEIINYVEDNLGKRMGVIELEDPTDLMFERVCNYLKEGHHHHHH”, the “soluble on expression in E. coli” value is reported as “soluble”.
For ELYSALANKCCHVGCTKRSLARFC, the “soluble on expression in E. coli” value was “soluble”.
In the case of “MGSDKIHHHHHHMKQFSGLSRTIQGNHLLDTCAIDILKIGHRPLVLCAKQEYNTTVESFVKVLTCHGLIVKIVYMEEWDQNSVEECGEVGFRHRADHIIGIGNSSVAACTKAVADLLDLPAVLIPTSPFTTLPWVSVENKKRERPLFNESIQLIIADREQLLTQPTSELINGVVNTLLYLAAIKEVKRNHLFSLVDDILIRSFESVLLRGSLQAIEDFEARILSKEVQDVLEVLSTCVTLDLPSDAWDVIQQIESKLSERREDLVDEPLKRNVVLYLLLSYLTQESEEFQARLKWCQQLLLSANSSNLLSLEAVLKEIALEMGEDGSTRC”, the “soluble on expression in E. coli” value is reported as “not soluble”.
With “KHHHHHHIKPGALCVIDTPEGKGTGFFSGNDIVTAAHVVGNNTFVNVCYEGLMYEAKVRYMPEKDIAFITCPGDLHPTARLKLSKNPDYSCVTVMAYVNEDLVVSTAAAMVYGNTLSYAVRTQDGMSGAPVCDKYCRVLAVHQTNTGYTGGAVIIDPTDFHPV” the “soluble on expression in E. coli” value was “soluble”.
For “MGSDKIHHHHHHMKAQEVPSTTFTGGETVLTFKGGVHPPELKEWSKDKPIERAPLPQKVFVFLSNHAGNPAKPVVSPGDEVKTGQVIGEPEGFISAYLHSPVTGRVLEIKKILHPILGKPIEAIVIERTSDDEWVHIETGDFERMSKEEILEIIKKAGIVGLGGAMFPTHVKLSPPPEKKVDTLIVNGAECEPVLTIDHRLMLERAEDILQGILIMMKVLGVQKAVVGVESNKMDAYHNLKKVFKGYPVDVALLRTKYPQGAEKQLIYAITGRMVPRGGLPMDVGVVVQNVGTCVAVKEAVVDGKPLVERGMTVSGDAVKNQKNLIVRIGTPVKDVIDYCGGIDENTERVILGGPMMGISITNLDIPVMKGTSGITAFLPKKSRPQKPCIRCSECVQVCPMNLQPYLLYLLSTKRKYDEAVENGLMDCIECGSCTYTCPSKIEHVRYIKLAKTVYRATRRGRR”, the “soluble on expression in E. coli” value was “not soluble”.
With “MAFLLKLEPDMQGKVDLFRARIAQEAEDLVSTFFPQKVLELNSRVQELRLQDLSRIHSVPTSEPLATPGNKGDGPNQNLPVLLTQFSIKVPALLGSEGQLLRSNQHLVELTEWVKPEIKLLREKCNTVHM” the “soluble on expression in E. coli” value was “not soluble”.
With “MGSDKIHHHHHHMPINIRRATINDIICMQNANLHNLPENYMMKYYMYHILSWPEASFVATTTTLDCEDSDEQDENDKLELTLDGTNDGRTIKLDPTYLAPGEKLVGYVLVKMNDDPDQQNEPPNGHITSLSVMRTYRRMGIAENLMRQALFALREVHQAEYVSLHVRQSNRAALHLYRDTLAFEVLSIEKSYYQDGEDAYAMKKVLKLEELQISNFTHRRLKENEEKLEDDLESDLLEDIIKQGVNDIIV” the “soluble on expression in E. coli” value was “not soluble”.
With “MSLCRVLAVKPSSYYDWMNRNISDQQIHRNQCELLVKAAHTETRERYGVDRLQAHLRQQGHYVSQYMIRSIKEEYGIKCRRHKRFKMTTNSNHNKLVYLNVLDQQFDAKHPNESWVSDITYIWTNEGWLYLAGVKDLYTKELVGYAINKRMTADLVCRALNMAIKNKRPRQGLIVHSDRGSQYCSHAYHKIIEQHQFTGSMSAKGNCFDNAPIESFWGVLKNELVYHQDYKTRFEAISDITQYIELEYNEERLAKHCFAATQDKSCARSGAREGHHHHHH” the “soluble on expression in E. coli” value was “soluble”.
In the case of “MGSDKIHHHHHHMNIHVKECGDLEAPLLVFLHGGGVSGWMWSNQVDYFHHYHCIVPDLPHHGLSGRETSFTILNSAEALIRLIEKKAQGRDVIVIGFSLGAQILLQMISINPRLITKAIVNSALVRPIPIPEKLLELSVKSTFPLIKSRWFSRLQAKTLYIDDDLFETYYRESCQMTQDSLTQILKENVSFRLPENVHEISTRILTTVGAKEKRIMKTSATMITHAHPNSTGIIIPSVGHGIPLAKPDQFNQLVDQWLKEERLPHDVGLIEK”, the “soluble on expression in E. coli” value is reported as “not soluble”.
